From patent US6586222

Columns and labels:
[1] = test system: recombinant human proPR-3 secreted from Sf9 insect cells
[2] = target: recombinant human proPR-3 secreted from Sf9 insect cells (human) (UniProt P24158); assay: cell-based or functional assay
recombinant human proPR-3 secreted from Sf9 insect cells (human), sequence (P24158 26-256 V119I): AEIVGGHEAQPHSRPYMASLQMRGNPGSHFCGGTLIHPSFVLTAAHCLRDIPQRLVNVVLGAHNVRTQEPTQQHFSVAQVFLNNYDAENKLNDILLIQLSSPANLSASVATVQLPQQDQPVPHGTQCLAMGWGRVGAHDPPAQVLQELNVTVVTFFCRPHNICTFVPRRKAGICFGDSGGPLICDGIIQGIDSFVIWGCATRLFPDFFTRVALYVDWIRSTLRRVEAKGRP

recombinant human proPR-3 secreted from Sf9 insect cells, sequence (chain, as listed by the source): as the sequence (P24158 26-256 V119I) above

Row | N-terminal sequence of PR-3 after preparative DPPI activation [2] | Substance | activation of proPR-3 (PR-3 activity on Boc-Ala-ONp after DPPI treatment) [1]
1 | – | bovine dipeptidyl peptidase I (Boehringer Mannheim) | 1.25% (wt/wt) was determined the minimum amount of DPPI required to obtain complete activation of PR-3 in 3 hr. at 37 °C
2 | > 85% | bovine dipeptidyl peptidase I (Boehringer Mannheim) (from UniProt Q3ZCJ8 25-463) (enzyme) | –
